{"source": "the RNAGym collection of RNA variant scans (doi:10.1021/acssynbio.7b00057)", "parents": {"B1": {"name": "Pistol ribozyme (parent)", "chain": "GGGUCGUUGUUCCAUAAUCGCGUGGAUAUGGCACGCAAGUUUCUACCGGGCACCGUAAAUGUCCGACUGGAGCCGUUCGGGCGGCUAUAAACAGACCUCAGGCCCGAAGCGUGGCGGCACCUGCCGCCGGUGGUAAAAAAGAUCGGAAGAGCACACGUCU"}}}
{"variants_of": "B1", "experiment": "aptazyme ON/OFF ratio, guanine; higher = stronger switching; co-transcriptional cleavage with and without guanine"}
{"variant": "GGGUCGCUAAGGGAUAAUCGCGUGGAUAUGGCACGCAAGUUUCUACCGGGCACCGUAAAUGUCCGACUGGAGCCGUUCGGGCGGCUAUAAACAGACCUCAGGCCCGAAGCGUGGCGGCACCUGCCGCCGGUGGUAAAAAAGAUCGGAAGAGCACACGUCU", "note": "[U7C G9A U10A U11G C12G C13G]", "aptazyme ON/OFF ratio": 1.08}
{"variant": "GGGUCGCUAAGGUAUAAUCGCGUGGAUAUGGCACGCAAGUUUCUACCGGGCACCGUAAAUGUCCGACUGGAGCCGUUCGGGCGGCUAUAAACAGACCUCAGGCCCGAAGCGUGGCGGCACCUGCCGCCGGUGGUAAAAAAGAUCGGAAGAGCACACGUCU", "note": "[U7C G9A U10A U11G C12G C13U]", "aptazyme ON/OFF ratio": 1.11}
{"variant": "GGGUCGCUAAGGAAUAAUCGCGUGGAUAUGGCACGCAAGUUUCUACCGGGCACCGUAAAUGUCCGACUGGAGCCGUUCGGGCGGCUAUAAACAGACCUCAGGCCCGAAGCGUGGCGGCACCUGCCGCCGGUGGUAAAAAAGAUCGGAAGAGCACACGUCU", "note": "[U7C G9A U10A U11G C12G C13A]", "aptazyme ON/OFF ratio": 1.12}
{"variant": "GGGUCGCUACUAGAUAAUCGCGUGGAUAUGGCACGCAAGUUUCUACCGGGCACCGUAAAUGUCCGACUGGAGCCGUUCGGGCGGCUAUAAACAGACCUCAGGCCCGAAGCGUGGCGGCACCUGCCGCCGGUGGUAAAAAAGAUCGGAAGAGCACACGUCU", "note": "[U7C G9A U10C C12A C13G]", "aptazyme ON/OFF ratio": 1.17}
{"variant": "GGGUCGCUACUAAAUAAUCGCGUGGAUAUGGCACGCAAGUUUCUACCGGGCACCGUAAAUGUCCGACUGGAGCCGUUCGGGCGGCUAUAAACAGACCUCAGGCCCGAAGCGUGGCGGCACCUGCCGCCGGUGGUAAAAAAGAUCGGAAGAGCACACGUCU", "note": "[U7C G9A U10C C12A C13A]", "aptazyme ON/OFF ratio": 1.38}
{"variant": "GGGUCGCUAAGUAAUAAUCGCGUGGAUAUGGCACGCAAGUUUCUACCGGGCACCGUAAAUGUCCGACUGGAGCCGUUCGGGCGGCUAUAAACAGACCUCAGGCCCGAAGCGUGGCGGCACCUGCCGCCGGUGGUAAAAAAGAUCGGAAGAGCACACGUCU", "note": "[U7C G9A U10A U11G C12U C13A]", "aptazyme ON/OFF ratio": 1.16}
{"variant": "GGGUCGCUAAGUGAUAAUCGCGUGGAUAUGGCACGCAAGUUUCUACCGGGCACCGUAAAUGUCCGACUGGAGCCGUUCGGGCGGCUAUAAACAGACCUCAGGCCCGAAGCGUGGCGGCACCUGCCGCCGGUGGUAAAAAAGAUCGGAAGAGCACACGUCU", "note": "[U7C G9A U10A U11G C12U C13G]", "aptazyme ON/OFF ratio": 1.13}
{"variant": "GGGUCGCUAAGUUAUAAUCGCGUGGAUAUGGCACGCAAGUUUCUACCGGGCACCGUAAAUGUCCGACUGGAGCCGUUCGGGCGGCUAUAAACAGACCUCAGGCCCGAAGCGUGGCGGCACCUGCCGCCGGUGGUAAAAAAGAUCGGAAGAGCACACGUCU", "note": "[U7C G9A U10A U11G C12U C13U]", "aptazyme ON/OFF ratio": 1.27}
{"variant": "GGGUCGCUACUCCAUAAUCGCGUGGAUAUGGCACGCAAGUUUCUACCGGGCACCGUAAAUGUCCGACUGGAGCCGUUCGGGCGGCUAUAAACAGACCUCAGGCCCGAAGCGUGGCGGCACCUGCCGCCGGUGGUAAAAAAGAUCGGAAGAGCACACGUCU", "note": "[U7C G9A U10C]", "aptazyme ON/OFF ratio": 4.55}
{"variant": "GGGUCGCUAAGAAAUAAUCGCGUGGAUAUGGCACGCAAGUUUCUACCGGGCACCGUAAAUGUCCGACUGGAGCCGUUCGGGCGGCUAUAAACAGACCUCAGGCCCGAAGCGUGGCGGCACCUGCCGCCGGUGGUAAAAAAGAUCGGAAGAGCACACGUCU", "note": "[U7C G9A U10A U11G C12A C13A]", "aptazyme ON/OFF ratio": 1.08}
{"variant": "GGGUCGCUAAGAUAUAAUCGCGUGGAUAUGGCACGCAAGUUUCUACCGGGCACCGUAAAUGUCCGACUGGAGCCGUUCGGGCGGCUAUAAACAGACCUCAGGCCCGAAGCGUGGCGGCACCUGCCGCCGGUGGUAAAAAAGAUCGGAAGAGCACACGUCU", "note": "[U7C G9A U10A U11G C12A C13U]", "aptazyme ON/OFF ratio": 1.15}
{"variant": "GGGUCGCUAAGAGAUAAUCGCGUGGAUAUGGCACGCAAGUUUCUACCGGGCACCGUAAAUGUCCGACUGGAGCCGUUCGGGCGGCUAUAAACAGACCUCAGGCCCGAAGCGUGGCGGCACCUGCCGCCGGUGGUAAAAAAGAUCGGAAGAGCACACGUCU", "note": "[U7C G9A U10A U11G C12A C13G]", "aptazyme ON/OFF ratio": 1.11}
{"variant": "GGGUCGCUAAGCAAUAAUCGCGUGGAUAUGGCACGCAAGUUUCUACCGGGCACCGUAAAUGUCCGACUGGAGCCGUUCGGGCGGCUAUAAACAGACCUCAGGCCCGAAGCGUGGCGGCACCUGCCGCCGGUGGUAAAAAAGAUCGGAAGAGCACACGUCU", "note": "[U7C G9A U10A U11G C13A]", "aptazyme ON/OFF ratio": 1.07}
{"variant": "GGGUCGCUAAGCGAUAAUCGCGUGGAUAUGGCACGCAAGUUUCUACCGGGCACCGUAAAUGUCCGACUGGAGCCGUUCGGGCGGCUAUAAACAGACCUCAGGCCCGAAGCGUGGCGGCACCUGCCGCCGGUGGUAAAAAAGAUCGGAAGAGCACACGUCU", "note": "[U7C G9A U10A U11G C13G]", "aptazyme ON/OFF ratio": 1.02}
{"variant": "GGGUCGCUAAGCUAUAAUCGCGUGGAUAUGGCACGCAAGUUUCUACCGGGCACCGUAAAUGUCCGACUGGAGCCGUUCGGGCGGCUAUAAACAGACCUCAGGCCCGAAGCGUGGCGGCACCUGCCGCCGGUGGUAAAAAAGAUCGGAAGAGCACACGUCU", "note": "[U7C G9A U10A U11G C13U]", "aptazyme ON/OFF ratio": 1.25}
{"variant": "GGGUCGCUAAGGCAUAAUCGCGUGGAUAUGGCACGCAAGUUUCUACCGGGCACCGUAAAUGUCCGACUGGAGCCGUUCGGGCGGCUAUAAACAGACCUCAGGCCCGAAGCGUGGCGGCACCUGCCGCCGGUGGUAAAAAAGAUCGGAAGAGCACACGUCU", "note": "[U7C G9A U10A U11G C12G]", "aptazyme ON/OFF ratio": 1.15}
{"variant": "GGGUCGCUAAGUCAUAAUCGCGUGGAUAUGGCACGCAAGUUUCUACCGGGCACCGUAAAUGUCCGACUGGAGCCGUUCGGGCGGCUAUAAACAGACCUCAGGCCCGAAGCGUGGCGGCACCUGCCGCCGGUGGUAAAAAAGAUCGGAAGAGCACACGUCU", "note": "[U7C G9A U10A U11G C12U]", "aptazyme ON/OFF ratio": 1.31}
{"variant": "GGGUCGCUACUACAUAAUCGCGUGGAUAUGGCACGCAAGUUUCUACCGGGCACCGUAAAUGUCCGACUGGAGCCGUUCGGGCGGCUAUAAACAGACCUCAGGCCCGAAGCGUGGCGGCACCUGCCGCCGGUGGUAAAAAAGAUCGGAAGAGCACACGUCU", "note": "[U7C G9A U10C C12A]", "aptazyme ON/OFF ratio": 1.27}
